Test results from patent US7217548B2, “N-acetylglucosaminlytransferase and polynucleotide encoding the same” (National Institute of Advanced Industrial Science and …, priority 2000, dated 2007).

System: T1, CC(=O)N[C@@H](C)C(=O)N[C@@H](C)C(=O)N1CCC[C@H]1C(=O)N[C@H](C(=O)N1CCC[C@H]1C(=O)N[C@H](C(=O)N[C@@H](C)C(=O)N[C@@H](C)C(=O)N1CCC[C@H]1C(N)=O)C(C)C)[C@@H](C)O[C@H]1O[C@H](CO)[C@@H](O)[C@H](O)[C@@H]1O
T1 construct: 595 amino acids from 66: Ser thereof (66: Ser to 660: Thr), respectively; Ig kappa chain secretory signal (N); made in house; host or cells: HEK293T (transient, secreted into serum-free medium)
Test: Substrate specificity and kinetic parameters of solubilized human OMGnT enzyme (L)
Type: biochemical
Details: other: 125 mM MOPS pH7.3, 0.2 mM UDP-GlcNAc, 7.5 mM MnCl2, 37° C., 2 hours, pH 7.3
Experimental: […] […] The reaction mixture was then filtered with a filter Ultrafree-MC (Millipore) having a pore size of 0.22 μm to remove solids, and analyzed by Wakopak 5C18-200 column (4.6×250 mm, Wako Pure Chemical Industries, Ltd.). The separation was carried out using concentration gradient with Solution A and Solution B at a flow rate of 1.0 ml/min. […] Peptide detection was carried out at 214 nm, and the radioactivity of each fraction was assayed using a liquid scintillation counter.
The activity of GnT-1 was assayed with a method by Yoshida et al. [Yoshida, S., Suzuki, M., Yamano, S., Takeuchi, M., Ikenaga, H., Kioka, N., Sakai, H., and Komano, T., Glycobiology, (1999), 9, 53–58] as described below. A 20 μl reaction solution was prepared by adding an enzyme source thereto so as to have a final concentration of 100 mM MES (pH 6.0), 20 mM MnCl2, 5 μM Manα1–6(Manα1–3)Manα1–6(Manα1–3)Manβ1–4GlcNAcβ1–4GlcNAc-PA(M5GN2-PA; Takara Shuzo, PA-Sugar Chain 017), 1 mM UDP-GlcNAc, 100 mM GlcNAc, 5 mM AMP, 1% Triton X-100, and 0.2% BSA. The reaction solution was incubated at 37° C. for 1 hour, and the reaction was terminated in boiling water. Thereafter, the reaction solution was analyzed by a reverse phase HPLC (Cosmosil 5C18-AR column) available from Nacalai Tesque. […]

Chain of His-Xpress-sOMGnT(L) (Homo sapiens; M623V) (chain, as listed by the source M623V): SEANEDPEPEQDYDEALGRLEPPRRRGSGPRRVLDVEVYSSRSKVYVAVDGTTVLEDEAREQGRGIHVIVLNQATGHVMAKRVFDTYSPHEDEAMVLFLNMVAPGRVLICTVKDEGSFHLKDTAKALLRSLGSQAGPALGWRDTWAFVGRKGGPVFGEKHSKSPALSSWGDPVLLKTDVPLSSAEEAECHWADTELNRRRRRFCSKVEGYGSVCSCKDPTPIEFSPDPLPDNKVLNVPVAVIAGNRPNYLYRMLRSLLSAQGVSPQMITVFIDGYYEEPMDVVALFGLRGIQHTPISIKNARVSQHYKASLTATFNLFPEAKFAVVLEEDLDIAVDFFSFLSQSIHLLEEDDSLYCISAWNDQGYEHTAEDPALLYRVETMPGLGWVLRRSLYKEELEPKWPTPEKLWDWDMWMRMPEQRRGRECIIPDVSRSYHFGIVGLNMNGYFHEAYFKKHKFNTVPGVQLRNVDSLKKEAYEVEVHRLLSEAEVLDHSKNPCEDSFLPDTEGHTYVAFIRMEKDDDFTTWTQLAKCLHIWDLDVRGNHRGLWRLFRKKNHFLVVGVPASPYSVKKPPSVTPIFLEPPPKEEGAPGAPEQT

His-Xpress-sOMGnT(L) (Homo sapiens; M623V)
Km: 1850 µM
